Measurements as given in the supplement of paper PMC11246515.
± gives the standard deviation of the averaged measurements.

Test: total protein half-life in vivo (active degradation + dilution); higher = more stable protein
[1] = E. coli NCM3722 delta-clpP delta-lon delta-hslV, growth: N-lim chemostat, doubling time 6 h
[2] = E. coli NCM3722 delta-clpP, growth: N-lim chemostat, doubling time 6 h
[3] = E. coli NCM3722 delta-hslV, growth: N-lim chemostat, doubling time 6 h
[4] = E. coli NCM3722 delta-lon, growth: N-lim chemostat, doubling time 6 h
[5] = E. coli NCM3722 delta-smpB, growth: N-lim chemostat, doubling time 6 h
[6] = wild type E. coli NCM3722, growth: C-lim chemostat, doubling time 6 h
[7] = wild type E. coli NCM3722, growth: C-lim chemostat, doubling time 12 h
[8] = wild type E. coli NCM3722, growth: N-lim chemostat, doubling time 6 h
[9] = wild type E. coli NCM3722, growth: N-lim chemostat, doubling time 12 h
[10] = wild type E. coli NCM3722, growth: P-lim chemostat, doubling time 6 h
[11] = wild type E. coli NCM3722, growth: P-lim chemostat, doubling time 12 h
[12] = wild type E. coli NCM3722, growth: C-lim chemostat, doubling time 3 h

Sequence | total protein half-life in vivo [1] | total protein half-life in vivo [2] | total protein half-life in vivo [3] | total protein half-life in vivo [4] | total protein half-life in vivo [5] | total protein half-life in vivo [6] | total protein half-life in vivo [7] | total protein half-life in vivo [8] | total protein half-life in vivo [9] | total protein half-life in vivo [10] | total protein half-life in vivo [11] | total protein half-life in vivo [12]
MPFRSNNPITRDELLSRFFPQYHPVTTFNSGLSGGSFLIEHQGQRFVVRQPHDPDAPQSAFLRQYRALSQLPACIAPKPHLYLRDWMVVDYLPGAVKTYLPDTNELAGLLYYLHQQPRFGWRITLLPLLELYWQQSDPARRTVGWLRMLKRLRKAREPRPLRLSPLHMDVHAGNLVHSASGLKLIDWEYAGDGDIALELAAVWVENTEQHRQLVNDYATRAKIYPAQLWRQVRRWFPWLLMLKAGWFEYRWRQTGDQQFIRLADDTWRQLLIKQ | 6.3 ± 0.21 h | 6.27 ± 0.31 h | 6.3 h | 6.04 ± 0.35 h | 5.66 h | 7.13 h | > 16 h | 6.24 ± 0.49 h | 13.6 h | 5.96 h | 11.1 h | –
MTRYQHLATLLAERIEQGLYRHGEKLPSVRSLSQEHGVSISTVQQAYQTLETMKLITPQPRSGYFVAQRKAQPPVPPMTRPVQRPVEITQWDQVLDMLEAHSDSSIVPLSKSTPDVEAPSLKPLWRELSRVVQHNLQTVLGYDLLAGQRVLREQIARLMLDSGSVVTADDIIITSGCHNSMSLALMAVCKPGDIVAVESPCYYGSMQMLRGMGVKVIEIPTDPETGISVEALELALEQWPIKGIILVPNCNNPLGFIMPDARKRAVLSLAQRHDIVIFEDDVYGELATEYPRPRTIHSWDIDGRVLLCSSFSKSIAPGLRVGWVAPGRYHDKLMHMKYAISSFNVPSTQMAAATFVLEGHYHRHIRRMRQIYQRNLALYTCWIREYFPCEICITRPKGGFLLWIELPEQVDMVCVARQLCRMKIQVAAGSIFSASGKYRNCLRINCALPLSETYREALKQIGEAVYRAME | 6.94 ± 1 h | 3.72 ± 0.22 h | 2.89 h | – | 2.79 ± 0.039 h | 4.58 ± 0.076 h | 7.69 ± 0.59 h | 3.09 ± 0.11 h | – | 3.19 ± 0.25 h | 6.91 ± 3.5 h | 3.04 ± 0.04 h
MLAKRIIPCLDVRDGQVVKGVQFRNHEIIGDIVPLAKRYAEEGADELVFYDITASSDGRVVDKSWVSRVAEVIDIPFCVAGGIKSLEDAAKILSFGADKISINSPALADPTLITRLADRFGVQCIVVGIDTWYDAETGKYHVNQYTGDESRTRVTQWETLDWVQEVQKRGAGEIVLNMMNQDGVRNGYDLEQLKKVREVCHVPLIASGGAGTMEHFLEAFRDADVDGALAASVFHKQIINIGELKAYLATQGVEIRIC | 4.98 ± 0.68 h | 4.15 ± 0.38 h | 4.45 ± 0.13 h | 4.83 ± 0.12 h | 4.317 ± 0.0095 h | 5.53 ± 0.17 h | 9.44 ± 0.28 h | 4.34 ± 0.0084 h | 7.26 ± 0.56 h | 5.64 ± 0.13 h | 11.6 ± 0.42 h | 2.97 ± 0.2 h
METTQTSTIASKDSRSAWRKTDTMWMLGLYGTAIGAGVLFLPINAGVGGMIPLIIMAILAFPMTFFAHRGLTRFVLSGKNPGEDITEVVEEHFGIGAGKLITLLYFFAIYPILLVYSVAITNTVESFMSHQLGMTPPPRAILSLILIVGMMTIVRFGEQMIVKAMSILVFPFVGVLMLLALYLIPQWNGAALETLSLDTASATGNGLWMTLWLAIPVMVFSFNHSPIISSFAVAKREEYGDMAEQKCSKILAFAHIMMVLTVMFFVFSCVLSLTPADLAAAKEQNISILSYLANHFNAPVIAWMAPIIAIIAITKSFLGHYLGAREGFNGMVIKSLRGKGKSIEINKLNRITALFMLVTTWIVATLNPSILGMIETLGGPIIAMILFLMPMYAIQKVPAMRKYSGHISNVFVVVMGLIAISAIFYSLFS [P0AAD6] | – | – | 0.951 h | – | – | 5.62 ± 2.4 h | 2.71 h | – | – | 1.58 h | 3.86 ± 0.51 h | 1.85 h
MQGKALQDFVIDKIDDLKGQDIIALDVQGKSSITDCMIICTGTSSRHVMSIADHVVQESRAAGLLPLGVEGENSADWIVVDLGDVIVHVMQEESRRLYELEKLWS [P0AAT6] | 6.28 ± 1.2 h | 3.63 ± 1.7 h | 2.21 ± 0.063 h | 5.5 ± 0.84 h | 2.65 ± 0.19 h | 3.58 h | > 16 h | 2.72 h | 3.51 ± 0.17 h | 2.2 h | 4.01 h | 2.6 ± 0.59 h
MPLPDFRLIRLLPLAALVLTACSVTTPKGPGKSPDSPQWRQHQQDVRNLNQYQTRGAFAYISDQQKVYARFFWQQTGQDRYRLLLTNPLGSTELELNAQPGNVQLVDNKGQRYTADDAEEMIGKLTGMPIPLNSLRQWILGLPGDATDYKLDDQYRLSEITYSQNGKNWKVVYGGYDTKTQPAMPANMELTDGGQRIKLKMDNWIVK | 5.8 ± 0.1 h | 6.43 ± 0.19 h | – | – | 6.06 ± 0.35 h | 6.24 ± 0.15 h | 11.8 ± 0.91 h | 6.37 ± 0.46 h | 13.22 ± 0.027 h | 6.17 ± 0.18 h | 13.7 ± 0.68 h | 3.18 ± 0.06 h
MLDLFKAIGLGLVVLLPLANPLTTVALFLGLAGNMNSAERNRQSLMASVYVFAIMMVAYYAGQLVMDTFGISIPGLRIAGGLIVAFIGFRMLFPQQKAIDSPEAKSKSEELEDEPSANIAFVPLAMPSTAGPGTIAMIISSASTVRQSSTFADWVLMVAPPLIFFLVAVILWGSLRSSGAIMRLVGKGGIEAISRLMGFLLVCMGVQFIINGILEIIKTYH [P0AEY1] | – | 6.57 ± 0.74 h | 5.91 h | 6.14 ± 0.6 h | 6.12 ± 0.25 h | 5.73 ± 0.56 h | 11.1 ± 0.56 h | – | 10.7 h | 6.23 ± 0.11 h | 13 ± 1 h | –
